Data from paper PMC12363821 (bioRxiv, 2025).

Tests used:
Assay in all cases: flow cytometry on cells
[1] = target: T1, CD155 Mut (high-affinity mutant variant of CD155, rs1058402, G>A; Ala67Thr) (human, UniProt P15151 21-417, Ala67Thr)
T1 sequence: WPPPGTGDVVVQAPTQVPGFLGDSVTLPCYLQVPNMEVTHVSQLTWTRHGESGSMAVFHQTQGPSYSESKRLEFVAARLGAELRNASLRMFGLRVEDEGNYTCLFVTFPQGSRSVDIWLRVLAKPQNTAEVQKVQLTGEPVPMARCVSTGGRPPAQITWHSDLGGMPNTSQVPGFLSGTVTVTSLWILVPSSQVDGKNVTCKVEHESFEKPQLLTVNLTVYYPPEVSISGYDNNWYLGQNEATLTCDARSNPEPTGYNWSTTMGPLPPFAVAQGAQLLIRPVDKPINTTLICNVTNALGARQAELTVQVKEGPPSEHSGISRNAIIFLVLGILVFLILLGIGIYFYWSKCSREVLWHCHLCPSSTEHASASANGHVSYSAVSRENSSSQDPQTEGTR

[2] = target: T2, CD155 WT (wild-type CD155; poliovirus receptor, PVR) (human), P15151; conditions: remark: other sources report otherwise
T2 chain: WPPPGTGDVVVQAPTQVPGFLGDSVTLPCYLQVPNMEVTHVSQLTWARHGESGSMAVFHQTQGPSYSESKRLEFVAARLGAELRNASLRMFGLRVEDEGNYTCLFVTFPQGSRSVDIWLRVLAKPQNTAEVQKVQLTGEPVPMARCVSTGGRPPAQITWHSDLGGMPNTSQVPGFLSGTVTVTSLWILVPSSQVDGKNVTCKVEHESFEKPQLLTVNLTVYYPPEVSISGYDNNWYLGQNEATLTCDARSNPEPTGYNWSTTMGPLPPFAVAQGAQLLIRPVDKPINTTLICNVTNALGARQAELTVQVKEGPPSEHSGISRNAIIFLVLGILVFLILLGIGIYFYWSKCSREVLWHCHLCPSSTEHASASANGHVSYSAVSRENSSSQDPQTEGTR

[3] = target: T1, CD155 Mut (high-affinity mutant variant …); remark: listed apart in the source

B1: Recombinant human CD226-Immunoglobulin chimeric protein (Fc fusion)
chain: EEVLWHTSVPFAENMSLECVYPSMGILTQVEWFKIGTQQDSIAIFSPTHGMVIRKPYAERVYFLNSTMASNNMTLFFRNASEDDVGYYSCSLYTYPQGTWQKVIQVVQSDSFEAAVPSNSHIVSEPGKNVTLTCQPQMTWPVQAVRWEKIQPRQIDLLTYCNLVHGRNFTSKFPRQIVSNCSHGRWSVIVIPDVTVSDSGLYRCYLQASAGENETFVMRLTVAEGKTDNQYTLFVA
modifications: Alexa Fluor 594 (Zenon human IgG labeling kit)
[1]
  fold binding (AUC) against the CD155 WT sBC line: 1.29 fold

B2: Recombinant human TIGIT-Immunoglobulin chimeric protein, Q495A1 22-141 (Fc fusion)
chain: MMTGTIETTGNISAEKGGSIILQCHLSSTTAQVTQVNWEQQDQLLAICNADLGWHISPSFKDRVAPGPGLGLTLQSLTVNDTGEYFCIYHTYPDGTYTGRIFLEVLESSVAEHGARFQIP
modifications: here or on the partner: Alexa Fluor 594 (Zenon human IgG labeling kit)
[2]
  fold binding (AUC) against parental Mel1 hPSC: 4.25 fold

B3: Recombinant human TIGIT-Immunoglobulin chimeric protein (Fc fusion)
chain: MMTGTIETTGNISAEKGGSIILQCHLSSTTAQVTQVNWEQQDQLLAICNADLGWHISPSFKDRVAPGPGLGLTLQSLTVNDTGEYFCIYHTYPDGTYTGRIFLEVLESSVAEHGARFQIP
modifications: Alexa Fluor 594 (Zenon human IgG labeling kit)
[1]
  fold binding (AUC) against the CD155 WT sBC line: 1.37 fold
[3]
  fold binding (AUC) against parental Mel1 hPSC: 6.47 fold
  fold binding (AUC) against the CD155 WT hPSC line: 1.52 fold
